The target of the test is human ROR1 extracellular domain (ECD) protein (human) (UniProt Q01973). Briefly: ForteBio Octet; pseudo association rate of Wnt5a binding to ROR1 in the presence of the negative control antibody, not a rate of the antibody itself. A general note: Biolayer interferometry detects binding as a change in optical thickness at a sensor tip.
Sequence of human ROR1 extracellular domain (ECD) protein (human) (Q01973 30-406 limits assumed): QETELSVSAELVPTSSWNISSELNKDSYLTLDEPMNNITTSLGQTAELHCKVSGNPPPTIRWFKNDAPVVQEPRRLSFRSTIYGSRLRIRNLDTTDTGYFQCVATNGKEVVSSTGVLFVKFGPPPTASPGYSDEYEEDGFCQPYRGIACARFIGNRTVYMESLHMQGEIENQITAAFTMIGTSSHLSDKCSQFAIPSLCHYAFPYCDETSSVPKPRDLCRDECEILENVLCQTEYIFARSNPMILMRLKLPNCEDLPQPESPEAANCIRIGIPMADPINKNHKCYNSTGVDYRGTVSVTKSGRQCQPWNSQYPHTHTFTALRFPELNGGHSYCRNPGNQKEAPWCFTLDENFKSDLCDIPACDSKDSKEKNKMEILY

As to mAb Control (antibody), the Pesudo ka worked out at 21000 M⁻¹ s⁻¹.

These data come from patent US20180142016A1.
